The results in this text go back to the supplement of paper PMC5998384.

The subject of series [1] is HeLa Kyoto. The series is described as follows: solubility in G1/S (NP-40 vs SDS abundance) (log2 ratio); higher = more soluble. The following applies: cell cycle stage: G1/S.
Series [2] has as its system HeLa Kyoto. The experiment in a line: thermal stability score vs G1/S (z-score of summed log2 fold changes over temperatures); higher = more thermally stable than in G1/S.
Series [3] relates to HeLa Kyoto. The experiment in a line: melting temperature (median over replicates), in situ; higher = more thermally stable.
Series [4] concerns HeLa Kyoto. The series is described as follows: solubility change mitosis vs G1/S (difference of NP-40 vs SDS log2 ratios) (log2 ratio difference); higher = more soluble in mitosis.
The mark [5] stands for this setting: cell cycle stage: early G1 (4.5 h after nocodazole release).
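Throughout, for melting temperature (median over replicates), in situ: HeLa Kyoto cells synchronized by double thymidine or nocodazole block, proteins quantified by TMT10plex mass spectrometry, three independent biological replicates.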
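Throughout, for solubility change mitosis vs G1/S (difference of NP-40 vs SDS log2 ratios): synchronized HeLa Kyoto cells (double thymidine block for G1/S, nocodazole release for mitosis), protein amounts in NP-40 versus SDS lysates quantified by mass spectrometry, three biological replicates.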
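Throughout, for solubility in G1/S (NP-40 vs SDS abundance): HeLa Kyoto cells arrested at G1/S by double thymidine block, proteins quantified by TMT10plex mass spectrometry in mild NP-40 versus SDS extracts, three biological replicates.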
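Throughout, for thermal stability score vs G1/S (z-score of summed log2 fold changes over temperatures): synchronized HeLa Kyoto cells, proteins quantified by TMT10plex mass spectrometry, three biological replicates, mitosis taken 0.5 h after nocodazole release, G1/S directly after double thymidine block.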

Turning to “MPGFDYKFLEKPKRRLLCPLCGKPMREPVQVSTCGHRFCDTCLQEFLSEGVFKCPEDQLPLDYAKIYPDPELEVQVLGLPIRCIHSEEGCRWSGPLRHLQGHLNTCSFNVIPCPNRCPMKLSRRDLPAHLQHDCPKRRLKCEFCGCDFSGEAYESHEGMCPQESVYCENKCGARMMRRLLAQHATSECPKRTQPCTYCTKEFVFDTIQSHQYQCPRLPVACPNQCGVGTVAREDLPGHLKDSCNTALVLCPFKDSGCKHRCPKLAMARHVEESVKPHLAMMCALVSRQRQELQELRRELEELSVGSDGVLIWKIGSYGRRLQEAKAKPNLECFSPAFYTHKYGYKLQVSAFLNGNGSGEGTHLSLYIRVLPGAFDNLLEWPFARRVTFSLLDQSDPGLAKPQHVTETFHPDPNWKNFQKPGTWRGSLDESSLGFGYPKFISHQDIRKRNYVRDDAVFIRAAVELPRKILS [TRAF4]”, the “solubility in G1/S (log2)” value with HeLa Kyoto [1] is -0.439. Further, the values for the thermal stability score in the series with HeLa Kyoto [2] (setting [5]) and with HeLa Kyoto [2] (cell cycle stage: mitosis) were 0.266 and 0.814, respectively. Also, the melting temperature in the series on HeLa Kyoto [3] (cell cycle stage: G1/S) came out at 51.3 °C; in the series on HeLa Kyoto [3] (cell cycle stage: mitosis), 51.8 °C. In addition, the “solubility change mitosis (log2)” value with HeLa Kyoto [4] was 0.124.

“MPGFLVRILPLLLVLLLLGPTRGLRNATQRMFEIDYSRDSFLKDGQPFRYISGSIHYSRVPRFYWKDRLLKMKMAGLNAIQTYVPWNFHEPWPGQYQFSEDHDVEYFLRLAHELGLLVILRPGPYICAEWEMGGLPAWLLEKESILLRSSDPDYLAAVDKWLGVLLPKMKPLLYQNGGPVITVQVENEYGSYFACDFDYLRFLQKRFRHHLGDDVVLFTTDGAHKTFLKCGALQGLYTTVDFGTGSNITDAFLSQRKCEPKGPLINSEFYTGWLDHWGQPHSTIKTEAVASSLYDILARGASVNLYMFIGGTNFAYWNGANSPYAAQPTSYDYDAPLSEAGDLTEKYFALRNIIQKFEKVPEGPIPPSTPKFAYGKVTLEKLKTVGAALDILCPSGPIKSLYPLTFIQVKQHYGFVLYRTTLPQDCSNPAPLSSPLNGVHDRAYVAVDGIPQGVLERNNVITLNITGKAGATLDLLVENMGRVNYGAYINDFKGLVSNLTLSSNILTDWTIFPLDTEDAVRSHLGGWGHRDSGHHDEAWAHNSSNYTLPAFYMGNFSIPSGIPDLPQDTFIQFPGWTKGQVWINGFNLGRYWPARGPQLTLFVPQHILMTSAPNTITVLELEWAPCSSDDPELCAVTFVDRPVIGSSVTYDHPSKPVEKRLMPPPPQKNKDSWLDHV [GLB1]”: the “solubility in G1/S (log2)” value in the series with HeLa Kyoto [1] is 0.0247. Also, the thermal stability score in the series with HeLa Kyoto [2] (setting [5]) was found to be 0.0217; in the series with HeLa Kyoto [2] (cell cycle stage: mitosis), 0.602. In addition, the melting temperature worked out at 55.6 °C in the series with HeLa Kyoto [3] (cell cycle stage: G1/S) and 57.6 °C with HeLa Kyoto [3] (cell cycle stage: mitosis). Also, in the series with HeLa Kyoto [4], the “solubility change mitosis (log2)” value was -0.293.

Take “MPGKLLWGDIMELEAPLEESESQKKERQKSDRRKSRHHYDSDEKSETRENGVTDDLDAPKAKKSKMKEKLNGDTEEGFNRLSDEFSKSHKSRRKDLPNGDIDEYEKKSKRVSSLDTSTHKSSDNKLEETLTREQKEGAFSNFPISEETIKLLKGRGVTYLFPIQVKTFGPVYEGKDLIAQARTGTGKTFSFAIPLIERLQRNQETIKKSRSPKVLVLAPTRELANQVAKDFKDITRKLSVACFYGGTSYQSQINHIRNGIDILVGTPGRIKDHLQSGRLDLSKLRHVVLDEVDQMLDLGFAEQVEDIIHESYKTDSEDNPQTLLFSATCPQWVYKVAKKYMKSRYEQVDLVGKMTQKAATTVEHLAIQCHWSQRPAVIGDVLQVYSGSEGRAIIFCETKKNVTEMAMNPHIKQNAQCLHGDIAQSQREITLKGFREGSFKVLVATNVAARGLDIPEVDLVIQSSPPQDVESYIHRSGRTGRAGRTGICICFYQPRERGQLRYVEQKAGITFKRVGVPSTMDLVKSKSMDAIRSLASVSYAAVDFFRPSAQRLIEEKGAVDALAAALAHISGASSFEPRSLITSDKGFVTMTLESLEEIQDVSCAWKELNRKLSSNAVSQITRMCLLKGNMGVCFDVPTTESERLQAEWHDSDWILSVPAKLPEIEEYYDGNTSSNSRQRSGWSSGRSGRSGRSGGRSGGRSGRQSRQGSRSGSRQDGRRRSGNRNRSRSGGHKRSFD [DDX50]”: in the series on HeLa Kyoto [1], the “solubility in G1/S (log2)” value is -1.4. Also, the thermal stability score came out at 1.27 with HeLa Kyoto [2] (setting [5]) and 2.08 in the series on HeLa Kyoto [2] (cell cycle stage: mitosis). The melting temperature in the series on HeLa Kyoto [3] (cell cycle stage: mitosis) came out at 50.4 °C. Further, the “solubility change mitosis (log2)” value in the series with HeLa Kyoto [4] worked out at 0.879.

As to “MPGKLRSDAGLESDTAMKKGETLRKQTEEKEKKEKPKSDKTEEIAEEEETVFPKAKQVKKKAEPSEVDMNSPKSKKAKKKEEPSQNDISPKTKSLRKKKEPIEKKVVSSKTKKVTKNEEPSEEEIDAPKPKKMKKEKEMNGETREKSPKLKNGFPHPEPDCNPSEAASEESNSEIEQEIPVEQKEGAFSNFPISEETIKLLKGRGVTFLFPIQAKTFHHVYSGKDLIAQARTGTGKTFSFAIPLIEKLHGELQDRKRGRAPQVLVLAPTRELANQVSKDFSDITKKLSVACFYGGTPYGGQFERMRNGIDILVGTPGRIKDHIQNGKLDLTKLKHVVLDEVDQMLDMGFADQVEEILSVAYKKDSEDNPQTLLFSATCPHWVFNVAKKYMKSTYEQVDLIGKKTQKTAITVEHLAIKCHWTQRAAVIGDVIRVYSGHQGRTIIFCETKKEAQELSQNSAIKQDAQSLHGDIPQKQREITLKGFRNGSFGVLVATNVAARGLDIPEVDLVIQSSPPKDVESYIHRSGRTGRAGRTGVCICFYQHKEEYQLVQVEQKAGIKFKRIGVPSATEIIKASSKDAIRLLDSVPPTAISHFKQSAEKLIEEKGAVEALAAALAHISGATSVDQRSLINSNVGFVTMILQCSIEMPNISYAWKELKEQLGEEIDSKVKGMVFLKGKLGVCFDVPTASVTEIQEKWHDSRRWQLSVATEQPELEGPREGYGGFRGQREGSRGFRGQRDGNRRFRGQREGSRGPRGQRSGGGNKSNRSQNKGQKRSFSKAFGQ [DDX21]”, the “solubility in G1/S (log2)” value in the series on HeLa Kyoto [1] was -1.67. In addition, the thermal stability score is 5.09 in the series with HeLa Kyoto [2] (setting [5]) and 6.63 with HeLa Kyoto [2] (cell cycle stage: mitosis). The melting temperature with HeLa Kyoto [3] (cell cycle stage: G1/S) is 49.3 °C; with HeLa Kyoto [3] (cell cycle stage: mitosis) it was 50.8 °C. In the series on HeLa Kyoto [4], the “solubility change mitosis (log2)” value is 0.826.
